Patent US10513547B2, “Peptides and combination of peptides and scaffolds thereof for use in immunotherapy against colorectal carcinoma (CRC) and other cancers” (Immatics Biotechnologies GmbH, priority 2015, dated 2019)
One block for each substance: values may come before it.

Target: HLA-A*02:01 (Homo sapiens, UniProt P04439, D140Y/D185E/D98H/E176V/E277Q/G131W/G231S/I119V/I121R/I166T/I218V/L300P/L318F/N151K/N90K/P208A/P217A/Q86G/Q94H/R138H/R169H/T345S)
Assay: MHC binding assay (UV-ligand exchange, beta2m ELISA, peptide exchange yield)
Settings: binding to HLA-A*02:01
Text: Candidate peptides for T cell based therapies according to the present invention were further tested for their MHC binding capacity (affinity). The individual peptide-MHC complexes were produced by UV-ligand exchange, where a UV-sensitive peptide is cleaved upon UV-irradiation, and exchanged with the peptide of interest as analyzed. Only peptide candidates that can effectively bind and stabilize the peptide-receptive MHC molecules prevent dissociation of the MHC complexes. To determine the yield of the exchange reaction, an ELISA was performed based on the detection of the light chain ([…]) of stabilized MHC complexes. The assay was performed as generally described in Rodenko et al. (Rodenko et al., 2006).
96 well MAXISorp plates (NUNC) were coated over night with 2 ug/ml streptavidin in PBS at room temperature, washed 4× and blocked for 1 h at 37° C. in 2% BSA containing blocking buffer. Refolded HLA-A*02:01/MLA-001 monomers served as standards, covering the range of 15-500 ng/ml. Peptide-MHC monomers of the UV-exchange reaction were diluted 100 fold in blocking buffer. Samples were incubated for 1 h at 37° C., washed four times, incubated with 2 ug/ml HRP conjugated anti-β2m for 1 h at 37° C., washed again and detected with TMB solution that is stopped with […]. Absorption was measured at 450 nm. Candidate peptides that show a high exchange yield (preferably higher than 50%, most preferred higher than 75%) are generally preferred for a generation and production of antibodies or fragments thereof, and/or T cell receptors or fragments thereof, as they show sufficient avidity to the MHC molecules and prevent dissociation of the MHC complexes.

Substance: 4 (RLAELTVDEFL; listed as Homo sapiens) [compound 4]
Peptide exchange (MHC class I binding score, peptide exchange yield): “+++” (≥50 = +++)

Substance: 6 (FLAELPGSLSL; listed as Homo sapiens) [compound 6]
Peptide exchange (MHC class I binding score, peptide exchange yield): “+++” (≥50 = +++)

Substance: 8 (ALMLQGVDLL; listed as Homo sapiens) [compound 8]
Peptide exchange (MHC class I binding score, peptide exchange yield): “+++” (≥50 = +++)

Substance: 14 (FLDKPEDVLL; listed as Homo sapiens) [compound 14]
Peptide exchange (MHC class I binding score, peptide exchange yield): “++” (≥20% = ++)

Substance: 15 (LQLDKEFQL; listed as Homo sapiens) [compound 15]
Peptide exchange (MHC class I binding score, peptide exchange yield): “+++” (≥50 = +++)

Substance: 16 (VLVDQSWVL; listed as Homo sapiens) [compound 16]
Peptide exchange (MHC class I binding score, peptide exchange yield): “+++” (≥50 = +++)

Substance: 20 (YLKDGDVML; listed as Homo sapiens) [compound 20]
Peptide exchange (MHC class I binding score, peptide exchange yield): “+++” (≥50 = +++)

Substance: 23 (FLDANGHFV; listed as Homo sapiens) [compound 23]
Peptide exchange (MHC class I binding score, peptide exchange yield): “+++” (≥50 = +++)

Substance: 24 (VLDGVLMEL; listed as Homo sapiens) [compound 24]
Peptide exchange (MHC class I binding score, peptide exchange yield): “+++” (≥50 = +++)

Substance: 25 (SLADRLIGV; listed as Homo sapiens) [compound 25]
Peptide exchange (MHC class I binding score, peptide exchange yield): “++++” (≥75% = ++++)

Substance: 26 (GLASKENFSNVSL; listed as Homo sapiens) [compound 26]
Peptide exchange (MHC class I binding score, peptide exchange yield): “++” (≥20% = ++)

Substance: 27 (LLADEDSSYL; listed as Homo sapiens) [compound 27]
Peptide exchange (MHC class I binding score, peptide exchange yield): “++” (≥20% = ++)

Substance: 28 (ALTEIQEFI; listed as Homo sapiens) [compound 28]
Peptide exchange (MHC class I binding score, peptide exchange yield): “++++” (≥75% = ++++)

Other lines, results leading:

Peptide exchange (MHC class I binding score, peptide exchange yield): “+++” (≥50 = +++)
Substance: 29 (QMLDVAIRV; listed as Homo sapiens) [compound 29]

Peptide exchange (MHC class I binding score, peptide exchange yield): “+” (≥10% = +)
Substance: 30 (GLSSAYGGL; listed as Homo sapiens) [compound 30]

Peptide exchange (MHC class I binding score, peptide exchange yield): “+++” (≥50 = +++)
Substance: 33 (ALWEKNTHL; listed as Homo sapiens) [compound 33]

Peptide exchange (MHC class I binding score, peptide exchange yield): “+++” (≥50 = +++)
Substance: 34 (ILLEKSVSV; listed as Homo sapiens) [compound 34]

Peptide exchange (MHC class I binding score, peptide exchange yield): “+++” (≥50 = +++)
Substance: 35 (KLLDLTVRI; listed as Homo sapiens) [compound 35]

Peptide exchange (MHC class I binding score, peptide exchange yield): “+++” (≥50 = +++)
Substance: 36 (GLLESPSIFNFTA; listed as Homo sapiens) [compound 36]

Peptide exchange (MHC class I binding score, peptide exchange yield): “++” (≥20% = ++)
Substance: 40 (ALSNVIHKV; listed as Homo sapiens) [compound 40]

Peptide exchange (MHC class I binding score, peptide exchange yield): “++” (≥20% = ++)
Substance: 41 (ILDDSFKLL; listed as Homo sapiens) [compound 41]

Peptide exchange (MHC class I binding score, peptide exchange yield): “++” (≥20% = ++)
Substance: 43 (TLDAAQPRV; listed as Homo sapiens) [compound 43]

Peptide exchange (MHC class I binding score, peptide exchange yield): “+++” (≥50 = +++)
Substance: 44 (SLESKLTSV; listed as Homo sapiens) [compound 44]

Peptide exchange (MHC class I binding score, peptide exchange yield): “+++” (≥50 = +++)
Substance: 45 (ALAELLHGA; listed as Homo sapiens) [compound 45]

Peptide exchange (MHC class I binding score, peptide exchange yield): “+++” (≥50 = +++)
Substance: 46 (GLDDRYSLV; listed as Homo sapiens) [compound 46]

Peptide exchange (MHC class I binding score, peptide exchange yield): “++” (≥20% = ++)
Substance: 48 (FLDASDPAL; listed as Homo sapiens) [compound 48]

Peptide exchange (MHC class I binding score, peptide exchange yield): “+++” (≥50 = +++)
Substance: 50 (TLMAEMHVV; listed as Homo sapiens) [compound 50]

Peptide exchange (MHC class I binding score, peptide exchange yield): “++” (≥20% = ++)
Substance: 51 (QVWEIQHTV; listed as Homo sapiens) [compound 51]
